From patent publication US20140179612A1 come the findings set out here.

In the assay the target is αVβ3 integrin receptor on choroid endothelial cells (RF/6A). The assay can be described thus: cell-based or functional assay.

Substance “transferrin-tumstatin protein (recombinant fusion, secreted from ARPE cells, histidine tagged) (from UniProt P02787 20-698; Q01955 1426-1670)” returned an IC50, MTT assay of RF/6A choroid endothelial cell proliferation induced by VEGF 165 (50 ng/ml) of 5.97 nM and an inhibition of RF/6A cell proliferation at 15.6 nM (MTT assay) of 84%.
Substance “tumstatin protein (recombinant, secreted from ARPE cells, histidine tagged) (from UniProt Q01955 1426-1670) (ligand)” returned an IC50, MTT assay of RF/6A choroid endothelial cell proliferation induced by VEGF 165 (50 ng/ml) of 186 nM.
